Laboratory results taken from publication PMC2572193, “Structural Analysis of the Interactions Between Paxillin LD Motifs and α-Parvin” (Structure(London, England:1993), 2008).
Entries after “also recorded” stand apart in the source; their conditions may differ. Where a SMILES comes first, the peptide text is derived from it. Where no end group is shown, it is not given here. The star is where a group is joined. 5FAM = O=C1OC2(c3ccc(O)cc3Oc3cc(O)ccc32)c2ccc(C(=O)*)cc21

T1: α-parvin-CHC (residues 242–372) (Homo sapiens, UniProt Q9NVD7)
T1 construct: α-parvin-CHC (242–372) were subcloned; GST (N, cleaved yes); made in house; host or cells: Escherichia coli BL21
T1 sequence (Q9NVD7 242-372): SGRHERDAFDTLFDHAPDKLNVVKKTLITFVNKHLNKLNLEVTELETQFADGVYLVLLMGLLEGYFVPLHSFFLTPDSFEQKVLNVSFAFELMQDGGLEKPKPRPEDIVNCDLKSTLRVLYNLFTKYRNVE

T2: α-parvin-CHC (C-terminal calponin homology domain fragment of human α-parvin, residues 242-372) (human, UniProt Q9NVD7 242-372)
T2 construct: α-parvin, human, residues 242-372: the entire C-terminal CH domain and a portion of the inter-CH domain linker; Expressed from pGEX-6P1 (BamHI/EcoRI); also called type-5 CH domain of α-parvin; actopaxin; source: E. coli BL21, GST fusion, purified (glutathione sepharose, 3C-protease cleavage, Superdex 75); 15N-enriched for NMR
T2 sequence (looked up): T1 sequence (Q9NVD7 242-372)

T3: full-length human α-parvin (1-372) (human, UniProt Q9NVD7 1-372)
T3 construct: α-parvin, human, full length, residues 1-372; Expressed from pGEX-6P1 (EcoRI/EcoRI); also called full-length α-parvin; actopaxin; source: E. coli BL21, GST fusion, purified (glutathione sepharose, 3C-protease cleavage, MonoQ)
T3 sequence (looked up): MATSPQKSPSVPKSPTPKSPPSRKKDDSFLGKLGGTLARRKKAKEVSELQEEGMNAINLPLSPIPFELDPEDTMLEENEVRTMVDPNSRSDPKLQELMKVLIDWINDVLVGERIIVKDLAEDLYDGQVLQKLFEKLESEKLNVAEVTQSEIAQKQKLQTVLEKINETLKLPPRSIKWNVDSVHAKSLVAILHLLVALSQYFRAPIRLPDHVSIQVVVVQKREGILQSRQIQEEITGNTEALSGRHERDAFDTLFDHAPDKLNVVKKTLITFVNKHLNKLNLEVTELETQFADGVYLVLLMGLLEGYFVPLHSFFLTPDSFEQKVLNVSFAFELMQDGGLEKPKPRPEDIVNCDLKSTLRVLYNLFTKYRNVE

B1: 5-FAM-labeled LD1 peptide (paxillin residues 1-20) (peptide)
peptide: MDDLDALLADLESTTSHISK(5FAM)
notes: paxillin, human, LD1 motif, residues 1-20; also called fluorophore-labeled LD1 peptide; source: synthetic peptide, bought: Severn Biotech
B2: paxillin LD1 peptide (human paxillin residues 1-20) (peptide)
peptide: MDDLDALLADLESTTSHISK
notes: paxillin, human, LD1 motif, residues 1-20; source: synthetic peptide, bought: Severn Biotech
B3: paxillin LD3 peptide (human paxillin residues 213-232) (peptide)
peptide: VRPSVESLLDELESSVPSPV
notes: paxillin, human, LD3 motif, residues 213-232; source: synthetic peptide, bought: Severn Biotech
B4: paxillin LD2 peptide (human paxillin residues 141-160) (peptide)
peptide: NLSELDRLLLELNAVQHNPP
notes: paxillin, human, LD2 motif, residues 141-160; source: synthetic peptide, bought: Severn Biotech
B5: paxillin LD4 peptide (human paxillin residues 262-281) (peptide)
peptide: ATRELDELMASLSDFKFMAQ
notes: paxillin, human, LD4 motif, residues 262-281; source: synthetic peptide, bought: Severn Biotech

Tests used:
[1] = target: T1, α-parvin-CHC (residues 242–372); assay: NMR 1H-15N HSQC titration of 15N-enriched α-parvin-CHC with LD peptides; type: binding; settings: for KD / affinity range in words: NMR titration, 50 mM sodium phosphate, 100 mM NaCl, pH 6.9, 25°C
[2] = Solubility of LD peptide noted in NMR titration; type: physicochemical; settings: NMR titration buffer, 50 mM sodium phosphate, 100 mM NaCl, pH 6.9
Experimental: Figure S2. Determination of KD-Values for the Interaction of α−Parvin-CHC w ith LD Peptides […]
Titrations were performed with peptides representing the LD1 (A), LD 2(B), LD3 (C), LD4 (D), and […]
δ∆(1H15N) > 0.2 ppm for LD1 and LD2) were fitted globally to a single-site model (see experimental procedures). The errors refer to the fit only and exclude experimental errors. Note […]
respectively. No value could be derived for LD5 due to its low affinity. The KD-value for LD1 represents the weighted average over both antiparallel binding orientations, which exchange fast […]

[3] = target: paxillin LD1 (Homo sapiens) (UniProt P49023); settings: cited from earlier work
[4] = target: T2, α-parvin-CHC (C-terminal calponin …); assay: fluorescence polarisation; fluorescence anisotropy; 50 nM 5-FAM-labeled LD1 peptide, protein up to 300 μM; 100 mM potassium phosphate, 2 mM DTT, pH 8.0, 25°C; global fit to a single-site model; settings: both partners purified
[5] = target: T3, full-length human α-parvin (1-372); assay: as above; settings: both partners purified
[6] = target: T2, α-parvin-CHC (C-terminal calponin …); assay: NMR titration; 1H-15N HSQC of 235 μM 15N-enriched α-parvin-CHC titrated with LD peptide; 50 mM sodium phosphate, 100 mM NaCl, 2 mM DTT, 5% D2O, pH 6.9, 25°C; global fit to a single-site model; settings: both partners purified

| Molecule | KD / affinity range in words [1] | Kd [6] [µM] | further results |
| --- | --- | --- | --- |
| CC[C@H](C)[C@H](NC(=O)[C@H](Cc1c[nH]cn1)NC(=O)[C@H](CO)NC(=O)[C@@H](NC(=O)[C@@H](NC(=O)[C@H](CO)NC(=O)[C@H](CCC(=O)O)NC(=O)[C@H](CC(C)C)NC(=O)[C@H](CC(=O)O)NC(=O)[C@H](C)NC(=O)[C@H](CC(C)C)NC(=O)[C@H](CC(C)C)NC(=O)[C@H](C)NC(=O)[C@H](CC(=O)O)NC(=O)[C@H](CC(C)C)NC(=O)[C@H](CC(=O)O)NC(=O)[C@H](CC(=O)O)NC(=O)[C@@H](N)CCSC)[C@@H](C)O)[C@@H](C)O)C(=O)N[C@@H](CO)C(=O)N[C@@H](CCCCN)C(=O)O [LD1] (H-MDDLDALLADLESTTSHISK-OH) | micromolar range |  |  |
| CC(C)C[C@H](NC(=O)[C@H](CCC(=O)O)NC(=O)[C@H](CC(C)C)NC(=O)[C@H](CC(C)C)NC(=O)[C@H](CC(C)C)NC(=O)[C@H](CCCNC(=N)N)NC(=O)[C@H](CC(=O)O)NC(=O)[C@H](CC(C)C)NC(=O)[C@H](CCC(=O)O)NC(=O)[C@H](CO)NC(=O)[C@H](CC(C)C)NC(=O)[C@@H](N)CC(N)=O)C(=O)N[C@@H](CC(N)=O)C(=O)N[C@@H](C)C(=O)N[C@H](C(=O)N[C@@H](CCC(N)=O)C(=O)N[C@@H](Cc1c[nH]cn1)C(=O)N[C@@H](CC(N)=O)C(=O)N1CCC[C@H]1C(=O)N1CCC[C@H]1C(=O)O)C(C)C [LD2] | micromolar range |  |  |
| CC(C)C[C@H](NC(=O)[C@H](CCC(=O)O)NC(=O)[C@H](CC(=O)O)NC(=O)[C@H](CC(C)C)NC(=O)[C@H](CC(C)C)NC(=O)[C@H](CO)NC(=O)[C@H](CCC(=O)O)NC(=O)[C@@H](NC(=O)[C@H](CO)NC(=O)[C@@H]1CCCN1C(=O)[C@H](CCCNC(=N)N)NC(=O)[C@@H](N)C(C)C)C(C)C)C(=O)N[C@@H](CCC(=O)O)C(=O)N[C@@H](CO)C(=O)N[C@@H](CO)C(=O)N[C@H](C(=O)N1CCC[C@H]1C(=O)N[C@@H](CO)C(=O)N1CCC[C@H]1C(=O)N[C@H](C(=O)O)C(C)C)C(C)C [LD3] (H-VRPSVESLLDELESSVPSPV-OH) | relatively low affinity; also recorded: millimolar range |  |  |
| CSCC[C@H](NC(=O)[C@H](Cc1ccccc1)NC(=O)[C@H](CCCCN)NC(=O)[C@H](Cc1ccccc1)NC(=O)[C@H](CC(=O)O)NC(=O)[C@H](CO)NC(=O)[C@H](CC(C)C)NC(=O)[C@H](CO)NC(=O)[C@H](C)NC(=O)[C@H](CCSC)NC(=O)[C@H](CC(C)C)NC(=O)[C@H](CCC(=O)O)NC(=O)[C@H](CC(=O)O)NC(=O)[C@H](CC(C)C)NC(=O)[C@H](CCC(=O)O)NC(=O)[C@H](CCCNC(=N)N)NC(=O)[C@@H](NC(=O)[C@H](C)N)[C@@H](C)O)C(=O)N[C@@H](C)C(=O)N[C@@H](CCC(N)=O)C(=O)O [LD4] (H-ATRELDELMASLSDFKFMAQ-OH) | micromolar range |  | solubility (in words) [2]: poor solubility |
| PGSQLDSMLGSLQSDLNKLG [LD5] | low affinity; also recorded: millimolar range; also recorded: mM range ^a |  |  |
| PROXYL-labeled LD1: N-terminally blocked LD1 with N-terminal methionine replaced by cysteine, labeled with 3-maleimido-PROXYL (C(3‑maleimido‑PROXYL)DDLDALLADLESTTSHISK; also: N-terminally blocked (group not given here)) |  |  | KD-value compared with underivatized LD1 peptide ([1]; data not shown): the same |
| α-parvin CHC (from UniProt Q9NVD7) |  |  | Kd [3]: 1200 µM |
| B1 |  |  | Kd [4]: 120 ± 20 µM; Kd [5]: 130 ± 22 µM |
| B2 |  | 96 ± 2 |  |
| B3 |  | 2300 ± 100 |  |
| B4 |  | 204 ± 3 |  |
| B5 |  | 140 ± 30 |  |
